Source: PMC10397247
Values belong to the binder of their own block, whether it stands above or below them.

Experiments:
Assay in all cases: two-hybrid library CCNG1;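 further: natural log of median RNA to DNA barcode read ratio; higher means stronger binding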
4H918-bA = biological target: T1, 4H918-bA
T1 chain: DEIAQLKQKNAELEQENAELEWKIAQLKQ

4H967-bA = biological target: T2, 4H967-bA
T2 chain: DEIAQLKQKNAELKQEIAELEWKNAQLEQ

4H607-bA = biological target: T3, 4H607-bA
T3 chain: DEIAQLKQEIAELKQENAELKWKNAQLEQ

4H3189-bA = biological target: T4, 4H3189-bA
T4 chain: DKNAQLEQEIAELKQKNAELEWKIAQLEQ

4H568-bA = biological target: T5, 4H568-bA
T5 chain: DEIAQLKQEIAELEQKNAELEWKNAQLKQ

4H4001-bA = biological target: T6, 4H4001-bA
T6 chain: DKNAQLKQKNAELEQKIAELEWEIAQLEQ

4H72-bA = biological target: T7, 4H72-bA
T7 chain: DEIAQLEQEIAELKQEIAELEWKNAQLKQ

4H797-bA = biological target: T8, 4H797-bA
T8 chain: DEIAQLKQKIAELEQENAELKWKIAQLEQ

4H687-bA = biological target: T9, 4H687-bA
T9 chain: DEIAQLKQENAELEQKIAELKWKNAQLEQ

4H953-bA = biological target: T10, 4H953-bA
T10 chain: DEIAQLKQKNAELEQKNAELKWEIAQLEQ

4H2576-bA = biological target: T11, 4H2576-bA
T11 chain: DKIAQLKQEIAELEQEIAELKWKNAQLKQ

4H1369-bA = biological target: T12, 4H1369-bA
T12 chain: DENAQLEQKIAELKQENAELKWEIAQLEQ

4H2610-bA = biological target: T13, 4H2610-bA
T13 chain: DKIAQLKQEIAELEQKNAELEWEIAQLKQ

4H883-bA = biological target: T14, 4H883-bA
T14 chain: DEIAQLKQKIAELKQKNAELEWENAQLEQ

4H570-bN = biological target: T15, 4H570-bN
T15 chain: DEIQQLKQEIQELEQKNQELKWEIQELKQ

4H331-bA = biological target: T16, 4H331-bA
T16 chain: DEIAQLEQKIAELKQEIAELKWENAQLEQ

4H1446-bA = biological target: T17, 4H1446-bA
T17 chain: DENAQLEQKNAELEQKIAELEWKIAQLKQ

4H462-bA = biological target: T18, 4H462-bA
T18 chain: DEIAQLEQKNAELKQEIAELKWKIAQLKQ

4H3855-bA = biological target: T19, 4H3855-bA
T19 chain: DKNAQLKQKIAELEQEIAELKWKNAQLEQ

4H3606-bA = biological target: T20, 4H3606-bA
T20 chain: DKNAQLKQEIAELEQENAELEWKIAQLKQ

4H1845-bA = biological target: T21, 4H1845-bA
T21 chain: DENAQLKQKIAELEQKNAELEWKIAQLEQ

4H370-bA = biological target: T22, 4H370-bA
T22 chain: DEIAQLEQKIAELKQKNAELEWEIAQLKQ

4H2697-bA = biological target: T23, 4H2697-bA
T23 chain: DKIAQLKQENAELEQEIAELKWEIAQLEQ

4H2667-bA = biological target: T24, 4H2667-bA
T24 chain: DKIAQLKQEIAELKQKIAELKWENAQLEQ

4H3782-bA = biological target: T25, 4H3782-bA
T25 chain: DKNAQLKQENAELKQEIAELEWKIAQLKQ

4H3843-bA = biological target: T26, 4H3843-bA
T26 chain: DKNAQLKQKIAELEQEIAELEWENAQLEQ

P8A-bA = biological target: T27, P8A-bA
T27 chain: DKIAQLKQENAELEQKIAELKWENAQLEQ

P3A-bA = biological target: T28, P3A-bA
T28 chain: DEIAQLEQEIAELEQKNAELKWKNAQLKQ

P11A-bA = biological target: T29, P11A-bA
T29 chain: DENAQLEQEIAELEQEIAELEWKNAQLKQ

P4A-bA = biological target: T30, P4A-bA
T30 chain: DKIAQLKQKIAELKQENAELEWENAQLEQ

P2A-bA = biological target: T31, P2A-bA
T31 chain: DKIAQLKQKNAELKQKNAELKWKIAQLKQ

P6A-bA = biological target: T32, P6A-bA
T32 chain: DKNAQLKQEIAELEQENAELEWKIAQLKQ

P12A-bA = biological target: T33, P12A-bA
T33 chain: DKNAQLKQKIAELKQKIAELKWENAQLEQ

P5A-bA = biological target: T34, P5A-bA
T34 chain: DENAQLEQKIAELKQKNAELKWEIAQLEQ

P7A-bA = biological target: T35, P7A-bA
T35 chain: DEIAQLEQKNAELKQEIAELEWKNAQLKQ

P1A-bA = biological target: T36, P1A-bA
T36 chain: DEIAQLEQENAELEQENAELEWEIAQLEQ

P9A-bA = biological target: T37, P9A-bA
T37 chain: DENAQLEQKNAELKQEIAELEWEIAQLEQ

- interaction score (4H918-bA): -1.28
- interaction score (4H967-bA): -1.41
- interaction score (4H607-bA): -1.2
- interaction score (4H3189-bA): -0.843
- interaction score (4H568-bA): -1.77
- interaction score (4H4001-bA): -0.513
- interaction score (4H72-bA): -1.2
- interaction score (4H797-bA): -0.836
- interaction score (4H687-bA): -0.0949
- interaction score (4H953-bA): -1.23
- interaction score (4H2576-bA): -0.209
- interaction score (4H1369-bA): -0.294
- interaction score (4H2610-bA): -0.708
- interaction score (4H883-bA): -1.53
- interaction score (4H570-bN): 0.413
- interaction score (4H331-bA): -0.963
- interaction score (4H1446-bA): -0.956
- interaction score (4H462-bA): -0.339
- interaction score (4H3855-bA): -1.08
- interaction score (4H3606-bA): 2.35
- interaction score (4H1845-bA): -1.43
- interaction score (4H370-bA): -1.03
- interaction score (4H2697-bA): -0.782
- interaction score (4H2667-bA): -0.912
- interaction score (4H3782-bA): -0.939
- interaction score (4H3843-bA): -0.634
Binder: DENAQLEQKIAELKQENAELKWEIAQLEQ [4H1369-bA]

- interaction score (P8A-bA): -0.165
- interaction score (P3A-bA): 0.562
- interaction score (P11A-bA): 0.99
- interaction score (P4A-bA): 0.592
- interaction score (P2A-bA): -0.362
- interaction score (P6A-bA): -0.543
- interaction score (P12A-bA): 0.511
- interaction score (P5A-bA): 0.318
- interaction score (P7A-bA): 1.04
- interaction score (P1A-bA): 0.776
Binder: DKNAQLKQENAELEQKIAELKWKIAQLKQ [P10A-bA]

- interaction score (P8A-bA): -1.32
- interaction score (P3A-bA): 0.536
- interaction score (P4A-bA): -1.03
- interaction score (P9A-bA): 0.0326
- interaction score (P2A-bA): -1.29
- interaction score (P6A-bA): -0.314
- interaction score (P12A-bA): -0.937
- interaction score (P5A-bA): -1.16
- interaction score (P7A-bA): -1.88
- interaction score (P1A-bA): -0.14
Binder: DKNAQLKQKIAELKQKIAELKWENAQLEQ [P12A-bA]
